Experiment [1] concerns the target Syt I (synaptotagmin I) expressed in 293T cells (UniProt P46096). Description: cell-based or functional assay.
For experiment [2], the target named is T1, GST-Syt I-C2A (C2A domain of synaptotagmin I fused to glutathione S-transferase) (Mus musculus (assumed), UniProt P46096).
T1 construct: synaptotagmin I, C2A domain; its full-length Syt vectors are mouse; also called GST-C2A; source: purified
Description: ELISA; GST-Syt I-C2A (0.25 pmol) coated on wells in PBS, 16 h 24 °C; blocked with 5% skim milk in PBS with 0.1% Tween 20; purified scFv (0.22-36 nM STAND-A36, 1.17-1800 nM scFv-T7-A36, 3.77-601 nM scFv-GFPA36) 2 h at 24 °C; detected with anti-Flag or anti-His; binding to GST wells subtracted; Kd from Hill-Langmuir fit. As to conditions: both partners purified.

Experiment [3] has as its target T2, GST-Syt I-C2B (C2B domain of synaptotagmin I fused to GST) (Mus musculus (assumed), UniProt P46096).
T2 construct: synaptotagmin I, C2B domain; also called GST-C2B; source: purified
Description: ELISA; purified STAND-A36 on the indicated GST-fused proteins (GST-C2A, GST-C2B, GST); absorbance, n = 3. The conditions noted are these: both partners purified. A general note: An ELISA detects its analyte on a solid surface through an enzyme-linked reagent.

Chain of Syt I (synaptotagmin I) expressed in 293T cells (P46096 whole entry, the tested form may be a part): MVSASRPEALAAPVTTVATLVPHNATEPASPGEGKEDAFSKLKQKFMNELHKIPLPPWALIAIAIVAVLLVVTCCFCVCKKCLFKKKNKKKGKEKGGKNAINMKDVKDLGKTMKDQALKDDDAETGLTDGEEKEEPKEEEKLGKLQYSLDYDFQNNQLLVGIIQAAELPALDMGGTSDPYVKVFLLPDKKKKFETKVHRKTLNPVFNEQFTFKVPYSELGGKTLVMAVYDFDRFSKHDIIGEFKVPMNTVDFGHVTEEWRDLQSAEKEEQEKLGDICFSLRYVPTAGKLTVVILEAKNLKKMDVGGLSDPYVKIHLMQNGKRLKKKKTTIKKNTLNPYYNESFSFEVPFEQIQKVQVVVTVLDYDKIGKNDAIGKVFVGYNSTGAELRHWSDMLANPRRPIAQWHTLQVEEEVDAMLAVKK
T2 sequence (P46096 whole entry, looked up, the tested form may be a part): as the sequence (P46096 whole entry, the tested form may be a part) above

B1: STAND-A36 (s3Flag-scFv-A36-HA) expressed in 293T cells (scFv, V domains shown)
VH: QVQLQQSGAELVRPGALVKLSCKASGFNIEDYYLHWVKQRPAQGLEWIGGIDPENGIAIYDSKFQGKASITADTSSNTAYLQLSSLTSEDTAVYYCATSEDSFDVWGQGTTVTVS
VL: DIELTQSPATMAASPGEKITITCSASSSISSNYLHWYQQKPGFSPKLLIYRTSNLASGVPARFSGSGSGTSYSLTIGTMEAEDVATYYCQQGSSIPLTFGAGTKLEIK
Regarding B1, in experiment [1], the “basal dopamine release in the striatum of mice expressing STAND-A36 (microdialysis), inhibition relative to mice expressing STAND-M4” value turned out to be 55.3% and the “high potassium (60 mM)-induced dopamine release in cultured dopamine neurons infected with AAV1-STAND-A36, relative to STAND-M4” value was determined as 79.3%.

B2: scFv-T7-A36 (scFv-A36 fused with T7- and His-tags), purified from E. coli (scFv, V domains shown)
VH: B1 VH
VL: B1 VL
notes: scFv-A36: VH-(Gly4-Ser)3 linker-VL; source: E. coli, purified under non-denaturing conditions (Probond nickel-chelating resin); not shown: T7, N-terminal, kept; His6, C-terminal, kept
One may read the Kd as the equilibrium constant for the complex coming apart. Lower therefore signals a tighter complex. Molecule B2 had a Kd in experiment [2] of 341 nM.

B3: STAND-A36 (s3Flag-scFv-A36-HA), purified from E. coli (scFv, V domains shown)
VH: B1 VH
VL: B1 VL
notes: scFv-A36: VH-(Gly4-Ser)3 linker-VL, from the spleen of Balb/c mice immunised with GST-Syt II-C2A (phage display); s3Flag-scFv-HA constructs were synthesised and codon-optimised (Genscript); also called s3Flag-A36-HA; purified STAND-A36
For B3, in experiment [3], the binding result is reported as “no binding”. In experiment [2], this molecule displayed an equilibrium dissociation constant (Kd) of 12.2 nM.

Source of the values: article PMC6969036 (Nature Communications, 2020).
